From the nanobody polyreactivity screen of Harvey et al. (2022)

Assay: yeast display, Sf9 membrane polyspecificity reagent, FACS + sequencing; frameworks hold sequencing errors
Outline: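 In a synthetic yeast display library (Saccharomyces cerevisiae BJ5465), nanobody expression was induced with galactose for 36–48 hours. FACS gates were set low and high (top ~1%) using anti-HA fluorescence for expression and streptavidin fluorescence for binding of the Sf9 membrane reagent. Each polyreactivity label is drawn from the gate of origin.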

Sequence	polyreactivity (PSR sort gate)
QVQLVESGGGLVQAGGSLRLSCAASGITFKYNAMGWYRPAPGKERELVAAISSGGNTYYADSVKGRFTISRDNAKNTVYLQMNSLKPEDTAVYYCAAPSYDTLWHDYWGQGTQVTVSS	low polyreactivity
QVQLVESGGGLVQAGGSLRLSCAASGITFKYYAMGWYRQAPGKERELVAAITRGGSTYYADSVKGRFTISRDNAKNTVYLQMNSLKPEDTAVYYCNKARTYELYWGQGTQVTVSS	high polyreactivity
QVQLVESGGGLVQAGGSLRLSCAASGITFKYYVMGWYRQAPGKEREFVAAISWGGGSTYYADSVKGRFTISRDNAKNTVYLQMNSLKPEDTAVYYCAARKGYYTHVQIGYRQSMDYWGQGTQVTVSS	high polyreactivity
QVQLVESGGGLVQAGGSLRLSCAASGITFLDYTMGWYRQAPGKERELVATISKSGGSTYYADSVKGRFTISRDNAKNTVYLQMNSLKPEDTAVYYCAARGFTFWRYYYWGQGTQVTVSS	high polyreactivity
QVQLVESGGGLVQAGGSLRLSCAASGITFLFYAMGWYRQAPGKERELVAAISRSGGSTYYADSVKGRFTISRDNAKNTVYLQMNSLKPEDTAVYYCAARSKDGGGPMYYWGQGTQVTVSS	high polyreactivity
QVQLVESGGGLVQAGGSLRLSCAASGITFLPYAMGWYRQAPGKERELVAAISWRGGRTYYADSVKGRFTISRDNAKNTVYLQMNSLKPEDTAVYYCAAVLVRKSGITYDYWGQGTQVTVSS	high polyreactivity
QVQLVESGGGLVQAGGSLRLSCAASGITFNGYTMGWYRQAPGKEREFVAAITRRGGSTYYADSVKGRFTISRDNAKNTVYLQMNSLKPEDTAVYYCARVTRLGGGDYDYWGQGTQVTVSS	high polyreactivity
QVQLVESGGGLVQAGGSLRLSCAASGITFNIYVMGWYRQAPGKERELVAAITDSGGTTYYADSVKGRFTISRDNAKNTVYLQMNSLKPEDTAVYYCAAEPFYSWWWWGDYWGQGTQVTVSS	high polyreactivity
QVQLVESGGGLVQAGGSLRLSCAASGITFNKNAMGWYRQAPGKEREFVAAITRRGGSTYYADSVKGRFTISRDNAKNTVYLQMNSLKPEDTAVYYCAARPYWSYRRYDYWGQGTQVTVSS	high polyreactivity
QVQLVESGGGLVQAGGSLRLSCAASGITFNPYVMGWYRQAPGTERELVAVITSGGSTNYADSVKGRFTISRDNAKNTVYLQMNSLKPEDTAVYYCNVDRRPYYVWRVTYDYWGQGTQVTVSS	low polyreactivity
QVQLVESGGGLVQAGGSLRLSCAASGITFNSYTMGWYRQAPGKERELVAAISDNGGRTFYADSVKGRFTISRDNAKNTVYLQMNSLKPEDTAVYYCAAVVYSEYYYWGQGTQVTVSS	low polyreactivity
QVQLVESGGGLVQAGGSLRLSCAASGITFNYYAKGSYRQAPGKERELVATINRSGGTTYYADSVKGRFTISRDNAKNTVYLQMNSLKPAVTAVYYCGALSKTRGGYWGQGTQVTVSS	high polyreactivity
QVQLVESGGGLVQAGGSLRLSCAASGITFPANARGWYRQAPGKERELVADISESDGSTYYADSVKGRFTISRDNAKNTVFLQMNSLKPEDTAVYYCAADGTSGTRSDYWGQCTQVTVSS	low polyreactivity
QVQLVESGGGLVQAGGSLRLSCAASGITFPGNAMGWYIQAPGKERELVAVISSGTSTNYADSVKGRFTISRDNAMNTVYLQMNSLKPEDTAVYYCATSLYYYPYYYWGQGTQVTVSS	low polyreactivity
QVQLVESGGGLVQAGGSLRLSCAASGITFPGTVMGWYRQAPGKERELVAAISTSGGSTYYADSVKGRFTISRDNAKNTVYLQMNSLKPEDTAVYYCARQYIRSSYGYWGQGTQVTVSS	low polyreactivity
QVQLVESGGGLVQAGGSLRLSCAASGITFPLYAMGWYRQAPGKETELVASITRGGTTNYADSVKGRFTISRDNAKNTVYLQMNRLKPEDTAVYYCAAEVTRDRGFDYWGQGTQVTVSS	low polyreactivity
QVQLVESGGGLVQAGGSLRLSCAASGITFPVYTMGWYRPAPVKERELVAAITSSGGSTYYADSVKGRFTISRDNAKNTVYLQMISLKQEDTAVYYCAARDYGRHHSYGYWGQGTQVTVSS	high polyreactivity
QVQLVESGGGLVQAGGSLRLSCAASGITFPVYTMGWYRQAPGKERALVAAISRSGGRTYYADSVKGRFTISSDNAKNTVYLQMNSLKPEDTAVYYCAVRQATVTGGGYWGQGTQVTVSS	high polyreactivity
QVQLVESGGGLVQAGGSLRLSCAASGITFPWYAMGWYIQAPGKERELVAAISFSGGSTYYADSVKWRFTISRDNAKNTVYLQMNCLKPVDTAVYYCAAVDGYSYIYAAGDYWGQGTQVTVSS	low polyreactivity
QVQLVESGGGLVQAGGSLRLSCAASGITFPYNAMGWYRQAPGKERELVASINSGDSTNYADSVKGRFTISRDNAKNTVYLQMNSLKPEDTAVYYCAAADYWHYKYDYWGQGTQVTVSS	low polyreactivity
QVQLVESGGGLVQAGGSLRLSCAASGITFPYYAMGWYRQAPGKERELVAAITIRSGRTYYADSVKGRFTISRDNAKNTVYLQMNSLKPEDTAVYYCAARLSNTYGYWGQGTQVTVSS	high polyreactivity
QVQLVESGGGLVQAGGSLRLSCAASGITFQGYTIGWYRQAPGKERELVAAISSNGGRTYYADSVKGRFTISRDNAKNTVYLQMNSLKPEDTAVYYCAARKWRLIVDYWGQGTQVTVSS	high polyreactivity

Sequence	polyreactivity (PSR sort gate)
QVQLVESGGGLVQAGGSLRLSCAASGITFQKYVMGWYRQAPGKEREFVAAITARGGTTYYADSVKGRFTISRDNAKNTVYLQMNSLKPEDTAVYYCAARSYYSGLAYYYWGQGTQVTVSS	high polyreactivity
QVQLVESGGGLVQAGGSLRLSCAASGITFQNYAMGWYRQAPGKERELVAAITGRGGSTYYADSVKGRFTISRDNAKHTVYLQMNSLKPEDTAVYYCATDRRGYRDDYWGQGTQVTVSS	high polyreactivity
QVQLVESGGGLVQAGGSLRLSCAASGITFQRYAMGWYRQAPGKERELVAAISTNGGTTYYADSVKGRFTISRDNAKNTVYLQMNSLKPEDTAVYFCNAESGYVYYIRYNYWGQGTQVTVSS	high polyreactivity
QVQLVESGGGLVQAGGSLRLSCAASGITFQRYAMGWYRQAPGKVRELVAAITRRGGSTYYADSVKGRFTISRDNAKNTVYLQMNSLKPEDTAVYYCAADLFFKARGYDYWGQGTQVTVSS	high polyreactivity
QVQLVESGGGLVQAGGSLRLSCAASGITFQWNAMGWYRQAPGKERELVAAISSGTSTYYADSVKGRFTISRDNAKNTVYLQMNSLKPEDTAVYYCNAVKSWGHPGRYYWGQGTQVTVSS	high polyreactivity
QVQLVESGGGLVQAGGSLRLSCAASGITFQYYAMGWYRQAPGKERELVAAITSSGVSTYYADSVKGRFTISRDNAKNTVYLQMNSLKPEDTAVYYCNTVVRGWSTSAYDYWGQGTQVTVSS	low polyreactivity
QVQLVESGGGLVQAGGSLRLSCAASGITFRDYAMGWYRQAPGKERELVAAISRSVGSTYYADSVKGRFTISRDNAKNTVYLQMNSLKPEDTAVYYCAALSQREFDYWGQGTQVTVSS	high polyreactivity
QVQLVESGGGLVQAGGSLRLSCAASGITFRGNVMGWYRQAPGKERELVAAISGSSGRTYYADSVKGRFTISRDNAKNTVYLQMYSLKPEDTAVYYCAATRTVRSYSIAPALGYWGQGTQVTVSS	high polyreactivity
QVQLVESGGGLVQAGGSLRLSCAASGITFRGYAMGWYRQAPGKERELVAAINSGGSTNYADAVKGRFTISRDNAKNTVYLQMNSLKPDDPAVYYCAADDYPYGNYYWGQGTQVTVSS	high polyreactivity
QVQLVESGGGLVQAGGSLRLSCAASGITFRGYAMGWYRQAPGKERELVADITWNGGSTYYADSVKGRFTISRDNAKNTVYLQMNSLKPEDPAVYYCAADGYRIYWSSYRFYYWGQGTQVTVSS	high polyreactivity
QVQLVESGGGLVQAGGSLRLSCAASGITFRGYAMGWYRQAPGKERELVASITNTDSTYYADSVKGRFTISRDNAKNTVYLQMNSLKPEDTAVYYCAARRGRKYGYWGQGTQVTVSS	high polyreactivity
QVQLVESGGGLVQAGGSLRLSCAASGITFRHYAMGWYRQAPGKEREMVARIRGGGVSTYYADSVKGRFTISRDNAKNTVYLQMNSLKPEDTAVYYCNAVFESWWGDYDYWGQGTQVTVSS	high polyreactivity
QVQLVESGGGLVQAGGSLRLSCAASGITFRKYFMGWYRQAPGKERELVATITRNGGTTNYADSVKGRFTISRDNAKNTVYLQMNSLKPEDTAVYYCAAPGPGYIYLGFDYWGQGTQVTVSS	high polyreactivity
QVQLVESGGGLVQAGGSLRLSCAASGITFRLYAMGWNRQAPGKERELVAAITGSGGRTYYADSVKGRFTISRDNAKNTVYLHMNSLKPEDTAVYYCAADWRHLRYRGGLKYDYWGQGTQVTFSS	high polyreactivity
QVQLVESGGGLVQAGGSLRLSCAASGITFRLYAMGWYRQAPGKERELVAAISKRGGSTYYADSVKGRFTISRDNAKNTVYLPMNSLKPDDTAVYYCAADSGWEHRYDYWGQGTQVTVSS	high polyreactivity
QVQLVESGGGLVQAGGSLRLSCAASGITFRRYTMGWYRQAPGKEWELVATISLSDGNTYYADSVKGRFTISRDNAKTTVYLQMNSLKPEDTAGYYCNARHTWHQTYDYWGQGTQVTVSS	low polyreactivity
QVQLVESGGGLVQAGGSLRLSCAASGITFRSYAMGWYRQAPGKDRELVAAISRTGGRTYYADSVKGRFTISRDNAKNTVYLQMNSLKAEDSAVYYCAAGGYSPYSLVGYDYWGQGTQVTVSS	high polyreactivity
QVQLVESGGGLVQAGGSLRLSCAASGITFRYYAMGWYRQAPGKERELVATISSSGARTYYADSVKGRFTISRDNAKNTVYFQINSLKPEDTAVYYCNAVTFTLHSQPYDYWGQGTQVTVSS	high polyreactivity
QVQLVESGGGLVQAGGSLRLSCAASGITFRYYAMGWYRQAPGKERELVSVISKGGTSTYYADSVKGRFTISRDNAKITVYLQMNSLKPEDTAVYYCAAAYFSSGYKYYYWGQGNQVTVSS	high polyreactivity
QVQLVESGGGLVQAGGSLRLSCAASGITFRYYPMGWYRPAPGKQRELVAAISRTSGRTYYADSVKGRFTISRDNAKNTVYLQMNSLNPEDPAVYYCNKAWTPSLLYQSYYWGQGPQVTVSS	high polyreactivity
QVQLVESGGGLVQAGGSLRLSCAASGITFRYYTMGWYRQAPGKERELVAVISWSGGSTYYADSVKGRFTISRDNGKNTVYLQMNSLKPEDTAVYYCAAVRRISRYDYWGQGTQVTVSS	high polyreactivity
